Assay results reported in patent US20250276077A1, “EPHA2 ANTIBODIES” (Immunome, Inc., priority 2022, published 2025).

Target: T1, human 4-1BB (Homo sapiens, UniProt Q07011)
T1 construct: host or cells: 4-1BB reporter cells of the Promega bioassay, alone or co-cultured with tumor cells (A549, MDA-MB-231, CT26, PC3, SKOV3)
Test: 4-1BB activation, inducible reporter cell system with or without tumor cells
Type: cell-based
Details: reporter cells alone or co-cultured with A549 tumor cells; 5 hours
Procedure: After confirming that they retained the ability to bind to PC3 cells, the EphA2-4-1BB bispecific antibodies were assayed for their ability to activate human 4-1BB using an inducible reporter cell system (Promega cat JA2351). […] reporter cells were either cultured alone with the EphA2-4-1BB bispecific antibodies or co-cultured with A549 tumor cells that had been treated with the EphA2-4-1BB bispecific antibodies. The 4-1BB antibody Urelumab (AB-009811) was included as a non-tumor targeting control. After 5 hours of culture, 4-1BB activation was determined from the reporter cells by measuring bioluminescence output.
The activation assay was repeated using MDA-MB-231, CT26, or PC3 tumor cells. […] FIG. 19A-D.
Constructs that comprise AB-008873 fused with h41BBL (THD)3-2 were generated and assayed for the ability to activate 4-1BB for tumor cell lines A549, MDA-MB231, SKOV3, and PC3, as described above for the EphA2-4-1BB bispecific antibodies. AB-009811 was included as a positive control and 5554-41BBL (THD) 3-10 or 5554-41BBL (THD) 3-2 was used as a negative control. […] FIG. 19E.

T1 sequence (Q07011 24-255): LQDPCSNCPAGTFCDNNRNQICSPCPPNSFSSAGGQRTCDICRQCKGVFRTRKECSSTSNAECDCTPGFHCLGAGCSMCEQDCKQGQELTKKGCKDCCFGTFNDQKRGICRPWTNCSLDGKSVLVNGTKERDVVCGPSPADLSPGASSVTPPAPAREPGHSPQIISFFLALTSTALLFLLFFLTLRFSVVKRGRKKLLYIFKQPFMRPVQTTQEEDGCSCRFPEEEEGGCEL

**Q.** How did the “4-1BB activation with and without tumor cells” value turn out when “Urelumab: 4-1BB antibody included as a non-tumor targeting control” was run?
**A.** activated 4-1BB with us without the presence of tumor cells
